Data published in patent publication US11384379B2, “Method for producing a protein and disaccharide using a Talaromyces cellulolyticus” (AJINOMOTO CO., INC., priority 2017, dated 2022).

Columns and labels:
[1] = test system: T. cellulolyticus strains F09pyr+ and F09Δgh1-2; test: Halo assay for secretory cellulase by various beta-linked glucose oligosaccharides (CMC minimal medium, Congo Red); format: cell-based, Talaromyces cellulolyticus; conditions: 1 mM in CMC minimal medium, 30° C. for 36 hours
Protocol: The strains F09pyr+ and F09Δgh1-2 were each grown on the minimal medium containing glucose as the carbon source for 3 days. […] After the culture, a Congo Red solution obtained by mixing 50 mM sodium phosphate buffer (pH 7.0) and 2 mg/ml Congo Red (Nacalai Tesque) in a volume ratio of 10:1 was added to the plate so that the Congo Red solution covered the entire plate, and the plate was left to stand for 30 minutes at a room temperature. Then, the Congo Red solution on the plate was removed, and sodium phosphate buffer (50 mM, pH 7.0) was added to the plate so that the sodium phosphate buffer covered the entire plate. The plate was again left to stand for 30 minutes at a room temperature. Then, the sodium phosphate buffer on the plate was removed, the surface of the plate was dried lightly, and observation of halo was carried out.

[2] = Generation of gentiobiose from cellulosic substrate/glucose by culture supernatant containing BGL3A; format: biochemical; conditions: enzyme solution, no cellulosic substrate added, glucose 0-14.4 wt %, 50° C. for 24 hours
Protocol: (§1) The strains F09Δbgl3A and F09pyr+ were each inoculated into a 1/2 PDA plate, and cultured at 30° C. for 3 days. […] Sampling was appropriately carried out, cells were removed using a 0.22 μm syringe filter, and the obtained culture supernatant was used as an enzyme solution. Thereby, an enzyme solution derived from the strain F09Δbgl3A not containing BGL3A (hereinafter, also referred to as “-BGL3A”) and an enzyme solution derived from the strain F09pyr+ containing BGL3A (hereinafter, also referred to as “+BGL3A”) were prepared.
The reaction was carried out by placing 10 g of the reaction solution (Table 5) in a 50-ml tube and shaking the tube at 90 rpm at 50° C. for 24 hours.

[3] = Generation of gentiobiose from cellobiose by culture supernatant containing BGL3A; format: biochemical; conditions: enzyme solution, 50° C. for 24 hours
Protocol: as §1
The two enzyme solutions obtained in Example (5-2) were used to degrade cellobiose, which is a decomposition product of a cellulosic substrate, under conditions of containing a certain concentration of glucose, and the product was analyzed. The reaction was carried out by placing 10 g of the reaction solution (Table 6) in a 50-ml tube and shaking the tube at 90 rpm at 50° C. for 24 hours.

[4] = Reaction of GH1-2s with cellobiose, products by TLC and ion exchange chromatography; format: biochemical; conditions: 30 μg/mL enzyme, 2% cellobiose aqueous solution, 40° C. for 1 to 60 minutes
Protocol: The purified GH1-2 was added to a 2% cellobiose aqueous solution at a concentration of 30 μg/mL, and a reaction solution after reaction at 40° C. for 1 to 60 minutes was used as a sample solution. The sample solution in 3 μL portions was spotted and developed on a thin layer chromatography plate (Merck) having a silica layer having a thickness of 200 μm, a size of 20×20 cm, and an average pore diameter of 60 angstroms. The composition of the developing solvent was chloroform:methanol:pure water=30:20:5 by volume ratio. An aniline phthalate method for detecting a reducing group was used for color development detection. […]
The reaction mixture obtained by using the wild-type GH1-2 was subject to ion exchange chromatography under the conditions described in Example (2-2), and the reaction product was analyzed, and observation of the hydrolysis product and the transglycosylation product was carried out over time. […]
Similarly, the reaction mixture obtained by using the W363F mutant GH1-2 was subject to ion exchange chromatography under the conditions described in Example (2-2), the reaction product was analyzed, and observation of the hydrolysis product and the transglycosylation product was carried out over time, and the result was compared with that observed when using the wild-type GH1-2 was observed. […]

[5] = Reaction of purified GH1-2 with high-concentration glucose, products by ion-exchange chromatography; format: biochemical; conditions: 1.4 g/L enzyme
Protocol: The purified GH1-2 was added to a 40% glucose aqueous solution at a concentration of 1.4 g/L, and reaction was carried out at 40° C. for 24 hours, to thereby obtain a sample. This sample was diluted 1000-fold with ion-exchanged water, and subjected to ion-exchange chromatography, to thereby analyze the reaction product. As a result, generation of beta-linked glucose oligosaccharides such as gentiobiose by GH1-2 was confirmed (FIG. 4).
The purified GH1-2 obtained in Example (2-1) was added to a 560 g/L glucose solution at a concentration of 1.4 g/L, to thereby obtain a reaction mixture. The reaction mixture was stirred so as to be uniform, and then left to stand at a room temperature for 52 hours. Then, the reaction mixture was heated at 95° C. for 10 minutes, to thereby obtain a saccharide solution containing gentiobiose. It was confirmed by the ion-exchange chromatography mentioned above that the saccharide solution contains 35.04 g/L gentiobiose.

O=C[C@H](O)[C@@H](O)[C@H](O[C@@H]1O[C@H](CO)[C@@H](O)[C@H](O)[C@H]1O)[C@H](O)CO [cellobiose, reference compound]
complementation of the decrease in the ability for secretory production of cellulase due to deletion of the gh1-2 gene (halo) [1]: scarcely able to complement the decrease in the ability for secretory production of cellulase

B1: BGL3A: major extracellular-secretion type beta-glucosidase of T. cellulolyticus (SEQ ID NO: 38), tested as culture supernatant of strain F09pyr+ (protein, listed as Talaromyces cellulolyticus)
chain: MYSAFLLLLASATPIVSAQSASWSAAYSKATAALSKLSQNDKIGMVTGVGWGKGPCVGNTAAPSGISFPSLCIQDSPLGVRYANPVTAFPAGTNAGMTWDRTLMNQRGAALGAESKGLGVHVQLGPVAGPLGKIAQGGRGWEGFGTDPYLSGVAMIETISGMQSSGTQACAKHYIGNEQELNRESMSSNIDDRTLHELYLWPFADAVRANVASVMCSYNQINGTFSCENEESMTGILKTELGFPGYIMSDWDAQHTTVTSANSGLDMTMPGSDYSDTPSSVLWGQNLANAISSGQVAQSRLDDMVTRILAAWYLVGQDQGFPAVAFNSWTGGQASVNVTSNHNQVARAVARDSIVLLKNTNSTLPLNKPSSIAIIGTDAQTNPSGPNACTDRGCDTGTLAMGWGSGTCQFPYLTDPLTAIKTRAASDGTTITTSISDNGSAGASVAQSAEYAIVFINSDSGEGYITVEGVAGDRNNLDPWHSGNALVQSVAAVNKKTIVVIHSVGPVILETILAQPNVVAVVWAGIPGQESGSALTDILYGSTAPSGKLTYTIAKQASDYGTAVVSGSDNYPEGLFIDYRHFDKSNIEPRYEFGYGLSYTTFGYTNLAIDITVSTGPTTGQIVPGGPSDLFESVGTVTVQVANTGSVAGSEVAQLYIGLPSSAPSSPPKQLRGFDKLSLAAGASGTATFDLTRRDLSYWDVSKQKWVVPSGAFTVYVGASSRDIRLQGTFTPGGSSTTSTITSSKTSTTISTSVTTSSSTTAKTTTTSSTTSSAGPTQTPYGQCGGQGWTGPTVCSSGWTCKVTNQWYSQCLQ
generation of gentiobiose from glucose [2]: can generate gentiobiose from glucose in a concentration-dependent manner | generation of gentiobiose from cellobiose [3]: can generate gentiobiose from cellobiose

B2: GH1-2: beta-glucosidase of T. cellulolyticus (SEQ ID NO: 23), His-tag at the C-terminus, expressed in E. coli and purified (protein, listed as Talaromyces cellulolyticus)
chain: MGSVTSTNGETPQSKLPADFVWGYATASYQIEGAYDEDGRGPSIWDTFSKTPGKVEDGTNGDVACDSYHRTHEDIAILKQYGAKLYRFSLSWPRIIPLGGRNDPINQKGIDFYSKFIDDLHAAGIEPFVTLYHWDLPDELFKRYGGPLNKDEFVADYANFARIAFQSFGHKVKHWVTFNEPWCSSVLGFNIGKHAPGRTSDRKKNPVGDGVREPWIAGHSLLVAHGTAVDIYRKEFKPTQGGEIGITLNGDWAEPWDPEDPEDIEACTRKLEFAISWFADPIYLGKYPDSVVKQIGDRLPPLTPDEVALIKGSNDFYGMNHYCANYIRHREGEADPDDTAGNLDHLFEDKFGNSIGPETNCEWLRPHPLGFRKLLKWLSDRYGYPKIYVTENGTSIKGENDLPLEELLNDEFRVQYYRDYVGAMADAATFDGVNVKKYMAWSLMDNFEWSEGYQSRFGVTYVDYKDNQKRIPKKSALVIGELFNKYISKE
modifications: C-terminal His-tag
activity on cellobiose (reaction products by TLC) [4]: has not only a hydrolysis activity but also has a transglycosylation activity | activity on glucose (generation of beta-linked glucose oligosaccharides such as gentiobiose) ([5]; 40% glucose aqueous solution, 40° C. for 24 hours): has a transglycosylation activity | gentiobiose contained in the saccharide solution after reaction ([5]; 560 g/L glucose solution, room temperature for 52 hours): 35.04 g/L
